Columns and labels:
HLA-B*27:05 = test: IEDB peptide-MHC binding, purified MHC/direct/fluorescence; filed as Kd, often an IC50 or EC50 that approximates it; ≥ and ≤ were set here for values at or beyond the usual limits of such assays; details: source organism: Influenza A virus (A/camel/Mongolia/1982(H1N1))
HLA-B*07:02 [1] = test: as above; details: source organism: Influenza A virus (A/camel/Mongolia/1982(H1N1))
HLA-A*02:01 [2] = test: as above; details: source organism: Influenza A virus (A/camel/Mongolia/1982(H1N1))
HLA-A*69:01 = test: as above; details: source organism: Influenza A virus (A/camel/Mongolia/1982(H1N1))
HLA-B*08:01 [3] = test: as above; details: source organism: Influenza A virus (A/camel/Mongolia/1982(H1N1))
HLA-B*08:02 = test: as above; details: source organism: Influenza A virus H3N2
HLA-A*11:01 [4] = test: as above; details: source organism: Influenza A virus (A/camel/Mongolia/1982(H1N1))
HLA-A*03:01 [5] = test: as above
HLA-B*58:01 = test: as above; details: source organism: Influenza A virus (A/camel/Mongolia/1982(H1N1))
HLA-B*15:01 = test: as above
HLA-A*01:01 [6] = test: as above; details: source organism: Influenza A virus (A/camel/Mongolia/1982(H1N1))
HLA-A*24:02 = test: as above; details: source organism: Influenza A virus (A/camel/Mongolia/1982(H1N1))
HLA-A*31:01 [7] = test: as above; details: source organism: Influenza A virus (A/camel/Mongolia/1982(H1N1))
HLA-A*02:02 = test: IEDB peptide-MHC binding, purified MHC/competitive/radioactivity; filed as Kd, often an IC50 or EC50 that approximates it; ≥ and ≤ were set here for values at or beyond the usual limits of such assays; details: source organism: Hepacivirus hominis
HLA-B*44:02 [8] = test: as above; details: source organism: Hepacivirus hominis
HLA-B*07:02 [9] = test: as above; details: source organism: Hepacivirus hominis
HLA-A*33:01 = test: as above; details: source organism: Hepacivirus hominis
HLA-B*51:01 = test: as above; details: source organism: Hepacivirus hominis
HLA-B*35:01 = test: as above; details: source organism: Hepacivirus hominis
HLA-A*02:01 [10] = test: as above; details: source organism: Hepacivirus hominis
HLA-B*40:02 = test: as above; details: source organism: Hepacivirus hominis
HLA-A*02:06 = test: as above; details: source organism: Hepacivirus hominis
HLA-A*68:02 = test: as above; details: source organism: Hepacivirus hominis
HLA-B*44:03 = test: as above; details: source organism: Hepacivirus hominis
HLA-A*68:01 = test: as above; details: source organism: Hepacivirus hominis
HLA-B*08:01 [11] = test: as above; details: source organism: Hepacivirus hominis
HLA-B*40:01 [12] = test: as above; details: source organism: Hepacivirus hominis
HLA-A*11:01 [13] = test: as above; details: source organism: Hepacivirus hominis
HLA-B*54:01 = test: as above; details: source organism: Hepacivirus hominis
HLA-A*03:01 [14] = test: as above; details: source organism: Hepacivirus hominis
HLA-A*02:03 = test: as above; details: source organism: Hepacivirus hominis
HLA-A*01:01 [15] = test: as above; details: source organism: Hepacivirus hominis
HLA-A*31:01 [16] = test: as above; details: source organism: Hepacivirus hominis
HLA-B*18:01 [17] = test: as above; details: source organism: Hepacivirus hominis
HLA-B*53:01 = test: as above; details: source organism: Hepacivirus hominis
HLA-B*44:02 [18] = test: IEDB peptide-MHC binding, purified MHC/direct/fluorescence; filed as Kd, often an IC50 or EC50 that approximates it; ≥ and ≤ were set here for values at or beyond the usual limits of such assays; details: source organism: Influenza A virus (A/camel/Mongolia/1982(H1N1))
HLA-B*46:01 = test: as above; details: source organism: Influenza A virus (A/camel/Mongolia/1982(H1N1))
HLA-B*40:01 [19] = test: as above; details: source organism: Influenza A virus (A/camel/Mongolia/1982(H1N1))
HLA-A*24:03 = test: as above; details: source organism: Influenza A virus (A/camel/Mongolia/1982(H1N1))
HLA-B*15:09 = test: as above; details: source organism: Influenza A virus H3N2
HLA-B*18:01 [20] = test: as above; details: source organism: Influenza A virus (A/camel/Mongolia/1982(H1N1))
[21] = source organism: Influenza A virus (A/camel/Mongolia/1982(H1N1))
[22] = source organism: Influenza A virus (A/Puerto Rico/8/34/Mount Sinai(H1N1))

## EKFFPSSSY
HLA-B*27:05
  Kd: ≥ 20 µM
HLA-B*07:02 [1]
  Kd: ≥ 20 µM
HLA-A*02:01 [2]
  Kd: ≥ 20 µM
HLA-A*69:01
  Kd: ≥ 20 µM
HLA-B*08:01 [3]
  Kd: ≥ 20 µM
HLA-B*08:02
  Kd: ≥ 20 µM
HLA-A*11:01 [4]
  Kd: ≥ 20 µM
HLA-A*03:01 [5]; [21]
  Kd: ≥ 20 µM
HLA-B*58:01
  Kd: ≥ 20 µM
HLA-B*15:01; [22]
  Kd: 1.12 µM
HLA-A*01:01 [6]
  Kd: ≥ 20 µM
HLA-A*24:02
  Kd: ≥ 20 µM
HLA-A*31:01 [7]
  Kd: ≥ 20 µM

## RPALVFDITK
HLA-A*02:02
  Kd: ≥ 70 µM
HLA-B*44:02 [8]
  Kd: ≥ 70.2 µM
HLA-B*07:02 [9]
  Kd: 0.222 µM
HLA-A*33:01
  Kd: ≥ 70 µM
HLA-B*51:01
  Kd: ≥ 69.6 µM
HLA-B*35:01
  Kd: ≥ 27.4 µM
HLA-A*02:01 [10]
  Kd: ≥ 37.4 µM
HLA-B*40:02
  Kd: ≥ 70.8 µM
HLA-A*02:06
  Kd: 12.3 µM
HLA-A*68:02
  Kd: ≥ 69.8 µM
HLA-B*44:03
  Kd: 15.6 µM
HLA-A*68:01
  Kd: 0.133 µM
HLA-B*08:01 [11]
  Kd: ≥ 49.8 µM
HLA-B*40:01 [12]
  Kd: ≥ 69.6 µM
HLA-A*11:01 [13]
  Kd: 0.796 µM
HLA-B*54:01
  Kd: 11.2 µM
HLA-A*03:01 [14]
  Kd: ≥ 29.7 µM
HLA-A*02:03
  Kd: ≥ 70.4 µM
HLA-A*01:01 [15]
  Kd: ≥ 51.3 µM
HLA-A*31:01 [16]
  Kd: ≥ 70 µM
HLA-B*18:01 [17]
  Kd: ≥ 70.5 µM
HLA-B*53:01
  Kd: 18.9 µM

## KFFPSSSYR
HLA-B*44:02 [18]
  Kd: ≥ 20 µM
HLA-B*27:05
  Kd: ≥ 20 µM
HLA-B*07:02 [1]
  Kd: ≥ 20 µM
HLA-A*02:01 [2]
  Kd: ≥ 20 µM
HLA-B*46:01
  Kd: ≥ 20 µM
HLA-A*69:01
  Kd: ≥ 20 µM
HLA-B*08:01 [3]
  Kd: ≥ 20 µM
HLA-B*40:01 [19]
  Kd: ≥ 20 µM
HLA-A*03:01 [5]; [22]
  Kd: 0.184 µM
HLA-A*24:03
  Kd: ≥ 20 µM
HLA-B*58:01
  Kd: ≥ 20 µM
HLA-B*15:01; [21]
  Kd: ≥ 20 µM
HLA-A*01:01 [6]
  Kd: ≥ 20 µM
HLA-A*24:02
  Kd: ≥ 20 µM
HLA-B*15:09
  Kd: ≥ 20 µM
HLA-B*18:01 [20]
  Kd: ≥ 20 µM

— the Immune Epitope Database (IEDB)
